# Measurements published in US20220054606A1, “ASPARAGINASE-INDUCED GLUTAMINE DEPLETION COMBINED WITH BCL-2 INHIBITION FOR TREATMENT OF HEMATOLOGIC AND SOLID CANCERS” (UNIVERSITY OF MARYLAND, BALTIMORE, priority 2018, published 2022).
# B1: Pegcrisantaspase (protein, UniProt P06608 22-348, looked up)
# L-asparaginase: ADKLPNIVILATGGTIAGSAATGTQTTGYKAGALGVDTLINAVPEVKKLANVKGEQFSNMASENMTGDVVLKLSQRVNELLARDDVDGVVITHGTDTVEESAYFLHLTVKSDKPVVFVAAMRPATAISADGPMNLLEAVRVAGDKQSRGRGVMVVLNDRIGSARYITKTNASTLDTFKANEEGYLGVIIGNRIYYQNRIDKLHTTRSVFDVRGLTSLPKVDILYGYQDDPEYLYDAAIQHGVKGIVYAGMGAGSVSVRGIAGMRKAMEKGVVVIRSTRTGNGIVPPDEELPGLVSDSLNPAHARILLMLALTRTSDPKVIQEYFHTY
# modifications: PEG conjugate
# notes: long acting crisantaspase, a recombinant pegylated Erwinia asparaginase
# Legend:
# MOLM-14 cells [1] = assay: Western blotting analysis of AML cell lysates; type: cell-based, human
# Experimental: Cells were lysed with radioimmunoprecipitation assay (RIPA) buffer (Thermo Fisher Scientific) supplemented with cOmplete™, EDTA-free Protease Inhibitor Cocktail (Sigma Aldrich). After thorough mixing and incubation at 4° C. for 30 min, lysates were centrifuged at 10,000 g at 4° C. for 10 min, and supernatants collected. Protein content of lysates was determined, and lysates separated by 4-12% polyacrylamide gel electrophoresis (SDS-PAGE), and electro-transferred onto polyvinylidene difluoride (PVDF) membranes. After blocking with 5% non-fat milk in tris-buffered saline, 0.1% Tween 20 (TBST), membranes were incubated with primary antibodies at 4° C. overnight, followed by 1:3000 horseradish peroxidase (HRP)-conjugated secondary antibody (Santacruz Biotechnology, Dallas, Tex.) for 1 h. Bands were visualized using Pierce Enhanced Chemiluminescence (ECL) Western Blotting Substrate (Thermo Fisher Scientific, Waltham, Mass.). Densitometry analyses were performed using Image Studio (Licor Biosciences) and presented as ratio of target band signal intensity to Actin band signal intensity.
# MOLM-14 cells [2] = assay: Analysis of m7GTP-Sepharose-bound proteins (cap-binding complex); type: cell-based, human; details: m7GTP enrichment
# Experimental: The affinity purification of proteins associated with the m^7GTP Sepharose (Jena Biosciences, Germany) was performed similarly to that described earlier. Cell lysates were prepared after 24 h of treatment and incubated with m^7GTP-sepharose for 2 h in cap-binding buffer (40 mM 4-(2-hydroxyethyl)-1-piperazineethanesulfonic acid [HEPES], pH 7.6; 120 mM NaCl; 1 mM EDTA; 0.3% 3-[(3-cholamidopropyl)dimethylammonio]-1-propanesulfonate. [CHAPS]). The beads were washed at room temperature three times in cap-binding buffer and boiled with 2× loading dye followed by separation on 4-12% SDS-PAGE and probed for specific antibodies.
molecule,measurement,setting,value
B1,p90RSK protein levels,"MOLM-14 cells [1]; MOLM-14, 16 h",significant decreases
same,Phosphorylation of ERK,MOLM-14 cells [1]; MOLM-14 and MonoMac6,markedly reduced
same,4EBP1 recruitment on cap complexes (rank order),MOLM-14 cells [2],Ven-PegC>Ven>PegC
